Here are results for one molecule from patent US20240083948A1 (ADVANCED TECHNOLOGIES FOR NOVEL THERAPEUTICS, published 2024).

Among the targets are AKT1 (PKB alpha), active (UniProt P31749 1-480, limits assumed); AKT2 (PKB beta) (UniProt P31751 1-481, limits assumed); PAK3 (UniProt O75914 1-559, limits assumed); Abl (UniProt P00519 27-1130, limits assumed); RPS6KB1 (p70S6K) (UniProt P23443 1-421, limits assumed); TrkB (UniProt Q16620 455-822, limits assumed); JAK3 (UniProt P52333 781-1124, limits assumed).
Assay in all cases: cell-based or functional assay
In another experiment the target is T1, PI3Kδ (UniProt O00329 1-1044, limits assumed).
T1 sequence (looked up): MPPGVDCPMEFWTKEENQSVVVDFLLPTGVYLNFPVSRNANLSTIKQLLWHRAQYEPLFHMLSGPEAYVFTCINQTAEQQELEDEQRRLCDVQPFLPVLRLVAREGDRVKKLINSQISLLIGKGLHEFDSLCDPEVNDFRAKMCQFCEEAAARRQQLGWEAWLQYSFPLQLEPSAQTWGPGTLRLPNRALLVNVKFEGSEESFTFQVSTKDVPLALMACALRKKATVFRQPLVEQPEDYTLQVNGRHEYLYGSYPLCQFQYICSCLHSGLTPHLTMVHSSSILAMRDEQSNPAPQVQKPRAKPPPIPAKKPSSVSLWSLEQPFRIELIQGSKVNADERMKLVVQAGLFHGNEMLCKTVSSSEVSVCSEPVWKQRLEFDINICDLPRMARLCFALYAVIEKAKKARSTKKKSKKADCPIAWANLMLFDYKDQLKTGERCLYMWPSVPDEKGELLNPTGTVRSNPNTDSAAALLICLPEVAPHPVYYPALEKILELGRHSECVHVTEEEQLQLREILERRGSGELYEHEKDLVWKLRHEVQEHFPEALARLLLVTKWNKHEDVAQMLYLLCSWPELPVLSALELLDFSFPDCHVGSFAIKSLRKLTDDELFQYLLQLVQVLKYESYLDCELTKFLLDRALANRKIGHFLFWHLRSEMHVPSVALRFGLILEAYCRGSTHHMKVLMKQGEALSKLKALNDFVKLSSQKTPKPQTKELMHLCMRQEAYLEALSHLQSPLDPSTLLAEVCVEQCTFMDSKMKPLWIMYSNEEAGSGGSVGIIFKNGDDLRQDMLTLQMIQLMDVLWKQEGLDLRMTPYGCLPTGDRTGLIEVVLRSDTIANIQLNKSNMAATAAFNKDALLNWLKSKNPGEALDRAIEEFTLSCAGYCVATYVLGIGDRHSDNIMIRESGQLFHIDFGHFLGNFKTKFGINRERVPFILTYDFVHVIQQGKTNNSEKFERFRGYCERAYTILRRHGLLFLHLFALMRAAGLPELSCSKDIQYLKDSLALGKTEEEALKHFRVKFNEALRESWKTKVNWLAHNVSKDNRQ

For a further experiment, the target named is T2, SGK (SGK1) (UniProt O00141 60-431, limits assumed).
T2 sequence (looked up): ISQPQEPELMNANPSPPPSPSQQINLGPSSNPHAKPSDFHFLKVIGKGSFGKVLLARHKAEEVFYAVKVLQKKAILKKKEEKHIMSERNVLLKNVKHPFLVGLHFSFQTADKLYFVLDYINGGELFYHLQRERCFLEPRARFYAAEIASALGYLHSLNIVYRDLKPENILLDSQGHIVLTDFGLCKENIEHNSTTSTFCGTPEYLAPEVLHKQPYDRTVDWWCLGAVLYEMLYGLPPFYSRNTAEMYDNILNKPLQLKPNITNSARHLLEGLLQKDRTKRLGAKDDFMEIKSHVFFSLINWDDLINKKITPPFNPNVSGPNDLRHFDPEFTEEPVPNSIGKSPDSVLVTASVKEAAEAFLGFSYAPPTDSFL

AKT2 (PKB beta), sequence (P31751 whole entry): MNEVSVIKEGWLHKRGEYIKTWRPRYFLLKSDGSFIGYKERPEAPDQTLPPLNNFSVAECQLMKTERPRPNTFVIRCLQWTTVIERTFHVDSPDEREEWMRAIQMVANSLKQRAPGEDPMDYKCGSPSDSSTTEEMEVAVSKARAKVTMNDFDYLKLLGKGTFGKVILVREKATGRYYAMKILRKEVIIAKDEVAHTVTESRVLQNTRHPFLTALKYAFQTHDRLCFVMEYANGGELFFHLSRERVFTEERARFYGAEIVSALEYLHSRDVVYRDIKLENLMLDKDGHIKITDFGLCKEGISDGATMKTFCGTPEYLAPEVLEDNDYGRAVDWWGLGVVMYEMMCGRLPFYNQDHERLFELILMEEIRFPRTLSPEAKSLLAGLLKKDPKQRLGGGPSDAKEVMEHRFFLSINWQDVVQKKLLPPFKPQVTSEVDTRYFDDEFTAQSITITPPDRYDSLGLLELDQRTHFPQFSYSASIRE
PAK3, sequence (O75914 whole entry): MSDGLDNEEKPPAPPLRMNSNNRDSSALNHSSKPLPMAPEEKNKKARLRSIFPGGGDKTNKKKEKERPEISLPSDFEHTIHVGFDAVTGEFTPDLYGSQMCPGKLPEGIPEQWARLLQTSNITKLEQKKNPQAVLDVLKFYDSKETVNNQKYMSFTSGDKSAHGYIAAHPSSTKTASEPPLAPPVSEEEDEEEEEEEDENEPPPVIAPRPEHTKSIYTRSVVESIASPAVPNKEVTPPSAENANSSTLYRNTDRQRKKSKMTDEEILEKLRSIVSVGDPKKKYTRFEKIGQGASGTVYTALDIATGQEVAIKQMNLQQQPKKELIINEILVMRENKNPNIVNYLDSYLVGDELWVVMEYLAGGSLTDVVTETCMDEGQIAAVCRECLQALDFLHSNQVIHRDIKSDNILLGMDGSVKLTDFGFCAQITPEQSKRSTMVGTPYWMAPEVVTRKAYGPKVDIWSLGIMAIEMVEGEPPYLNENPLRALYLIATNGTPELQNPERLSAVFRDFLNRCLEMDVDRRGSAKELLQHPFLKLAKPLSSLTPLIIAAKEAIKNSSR
RPS6KB1 (p70S6K), sequence (P23443 1-421 limits assumed): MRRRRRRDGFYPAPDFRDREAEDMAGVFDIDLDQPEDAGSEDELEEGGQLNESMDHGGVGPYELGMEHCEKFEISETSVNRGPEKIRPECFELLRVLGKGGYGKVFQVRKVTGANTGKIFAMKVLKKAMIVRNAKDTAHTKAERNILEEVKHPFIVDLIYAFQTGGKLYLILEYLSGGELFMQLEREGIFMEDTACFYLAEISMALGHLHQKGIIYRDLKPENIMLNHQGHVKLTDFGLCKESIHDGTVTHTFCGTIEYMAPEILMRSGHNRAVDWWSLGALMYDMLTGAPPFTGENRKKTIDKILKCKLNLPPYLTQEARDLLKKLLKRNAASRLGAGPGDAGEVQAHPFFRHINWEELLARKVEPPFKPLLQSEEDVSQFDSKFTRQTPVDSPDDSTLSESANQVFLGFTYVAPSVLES
JAK3, sequence (P52333 781-1124 limits assumed): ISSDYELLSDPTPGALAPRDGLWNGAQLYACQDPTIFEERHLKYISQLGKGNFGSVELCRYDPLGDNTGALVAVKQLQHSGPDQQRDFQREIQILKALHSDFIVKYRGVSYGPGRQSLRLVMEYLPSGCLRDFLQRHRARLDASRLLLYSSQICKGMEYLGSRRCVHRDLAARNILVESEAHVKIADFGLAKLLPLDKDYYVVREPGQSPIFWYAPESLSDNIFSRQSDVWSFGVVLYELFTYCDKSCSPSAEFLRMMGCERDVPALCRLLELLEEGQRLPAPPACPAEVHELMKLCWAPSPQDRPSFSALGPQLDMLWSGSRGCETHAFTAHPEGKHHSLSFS
AKT1 (PKB alpha), active, sequence (P31749 whole entry): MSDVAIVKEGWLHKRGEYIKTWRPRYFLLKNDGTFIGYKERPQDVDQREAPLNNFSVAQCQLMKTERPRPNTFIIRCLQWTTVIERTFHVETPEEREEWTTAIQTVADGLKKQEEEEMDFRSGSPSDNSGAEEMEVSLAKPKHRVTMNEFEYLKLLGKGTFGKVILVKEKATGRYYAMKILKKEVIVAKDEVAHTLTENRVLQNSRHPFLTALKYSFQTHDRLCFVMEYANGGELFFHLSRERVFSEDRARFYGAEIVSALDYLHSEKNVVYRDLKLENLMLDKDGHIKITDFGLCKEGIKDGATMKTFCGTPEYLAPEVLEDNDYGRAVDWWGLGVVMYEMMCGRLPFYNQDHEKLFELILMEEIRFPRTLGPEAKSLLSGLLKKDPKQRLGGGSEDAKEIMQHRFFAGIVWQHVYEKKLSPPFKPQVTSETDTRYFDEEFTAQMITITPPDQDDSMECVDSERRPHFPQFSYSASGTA
Abl, sequence (P00519 27-1130 limits assumed): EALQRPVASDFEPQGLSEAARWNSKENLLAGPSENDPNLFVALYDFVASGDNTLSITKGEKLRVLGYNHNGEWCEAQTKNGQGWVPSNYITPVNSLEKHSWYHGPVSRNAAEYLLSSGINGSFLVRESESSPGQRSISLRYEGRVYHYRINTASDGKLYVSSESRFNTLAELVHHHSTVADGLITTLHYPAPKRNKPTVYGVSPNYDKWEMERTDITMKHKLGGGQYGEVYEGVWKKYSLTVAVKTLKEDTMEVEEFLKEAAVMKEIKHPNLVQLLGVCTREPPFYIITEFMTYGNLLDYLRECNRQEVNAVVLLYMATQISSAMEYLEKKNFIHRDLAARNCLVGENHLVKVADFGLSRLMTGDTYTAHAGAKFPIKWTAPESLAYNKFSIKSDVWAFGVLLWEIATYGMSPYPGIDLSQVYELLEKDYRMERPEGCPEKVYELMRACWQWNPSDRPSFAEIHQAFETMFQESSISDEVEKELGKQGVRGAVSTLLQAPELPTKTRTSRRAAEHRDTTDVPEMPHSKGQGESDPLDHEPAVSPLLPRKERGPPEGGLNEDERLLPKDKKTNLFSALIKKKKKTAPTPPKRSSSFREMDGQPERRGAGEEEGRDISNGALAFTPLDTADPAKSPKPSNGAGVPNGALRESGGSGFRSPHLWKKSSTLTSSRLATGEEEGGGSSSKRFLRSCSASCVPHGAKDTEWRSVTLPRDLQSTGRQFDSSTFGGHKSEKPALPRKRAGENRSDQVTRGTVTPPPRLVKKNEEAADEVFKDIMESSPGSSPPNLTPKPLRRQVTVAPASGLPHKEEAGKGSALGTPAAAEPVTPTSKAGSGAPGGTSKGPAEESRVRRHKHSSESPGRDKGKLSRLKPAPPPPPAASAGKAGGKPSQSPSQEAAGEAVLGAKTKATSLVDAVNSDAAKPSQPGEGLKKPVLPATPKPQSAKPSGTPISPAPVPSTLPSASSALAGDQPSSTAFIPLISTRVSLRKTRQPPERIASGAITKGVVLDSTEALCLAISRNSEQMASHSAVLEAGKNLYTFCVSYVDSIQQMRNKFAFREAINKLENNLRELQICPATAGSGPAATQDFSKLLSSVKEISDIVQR
TrkB, sequence (Q16620 455-822 limits assumed): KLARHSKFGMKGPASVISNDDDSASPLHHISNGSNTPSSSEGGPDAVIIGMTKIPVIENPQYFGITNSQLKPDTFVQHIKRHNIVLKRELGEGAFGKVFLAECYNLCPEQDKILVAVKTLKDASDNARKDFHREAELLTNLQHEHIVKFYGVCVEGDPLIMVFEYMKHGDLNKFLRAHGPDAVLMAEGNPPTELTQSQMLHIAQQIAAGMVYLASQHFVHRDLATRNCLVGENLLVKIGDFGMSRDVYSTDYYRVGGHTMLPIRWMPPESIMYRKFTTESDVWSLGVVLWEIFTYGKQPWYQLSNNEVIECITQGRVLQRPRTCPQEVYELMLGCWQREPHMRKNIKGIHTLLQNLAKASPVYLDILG

B1: ZaTa peptide (Ala-Lys-Arg-Val-Lys-Gly-Arg-Thr-Trp-Thr-Leu-Cys-Gly-Thr-Pro-Glu-Tyr) (peptide)
peptide: AKRVKGRTWTLCGTPEY
In the case of B1, the “IC50, AKT1 in vitro catalytic activity (incorporation of γ-32P into Ser-21 GSK-3β substrate peptide)” value with AKT1 (PKB alpha), active was about 0.1 µM. In addition, the “in vitro kinase assay at ten times the IC50 for AKT1, percent inhibited” value with AKT2 (PKB beta) was found to be 63%; in the experiment with PI3Kδ, 72%; with SGK (SGK1) it was 73%; with PAK3, 83%; with Abl, 42%; with RPS6KB1 (p70S6K), 64%. Besides, the “in vitro kinase assay at ten times the IC50 for AKT1, percent inhibited” value in the experiment with TrkB came to 84%; in the experiment with JAK3 it was 79%.
